Patent publication US9266964
Changes are numbered by the printed parent chain.

Key:
[1] = molecular target: T1, human plasma kallikrein (human, UniProt P03952 20-390; P03952 391-638); assay: Ki,app, enzyme inhibition of pKal; antibody format not stated
T1 construct: two disulfide linked chains; also called pKal; human pKal

[2] = molecular target: T2, mouse plasma kallikrein (mouse, UniProt P26262 20-638, limits assumed); assay: apparent Ki (Ki,app), inhibition of mouse pKal enzyme activity
T2 construct: also called mouse pKal
T2 sequence (P26262 20-638 limits assumed): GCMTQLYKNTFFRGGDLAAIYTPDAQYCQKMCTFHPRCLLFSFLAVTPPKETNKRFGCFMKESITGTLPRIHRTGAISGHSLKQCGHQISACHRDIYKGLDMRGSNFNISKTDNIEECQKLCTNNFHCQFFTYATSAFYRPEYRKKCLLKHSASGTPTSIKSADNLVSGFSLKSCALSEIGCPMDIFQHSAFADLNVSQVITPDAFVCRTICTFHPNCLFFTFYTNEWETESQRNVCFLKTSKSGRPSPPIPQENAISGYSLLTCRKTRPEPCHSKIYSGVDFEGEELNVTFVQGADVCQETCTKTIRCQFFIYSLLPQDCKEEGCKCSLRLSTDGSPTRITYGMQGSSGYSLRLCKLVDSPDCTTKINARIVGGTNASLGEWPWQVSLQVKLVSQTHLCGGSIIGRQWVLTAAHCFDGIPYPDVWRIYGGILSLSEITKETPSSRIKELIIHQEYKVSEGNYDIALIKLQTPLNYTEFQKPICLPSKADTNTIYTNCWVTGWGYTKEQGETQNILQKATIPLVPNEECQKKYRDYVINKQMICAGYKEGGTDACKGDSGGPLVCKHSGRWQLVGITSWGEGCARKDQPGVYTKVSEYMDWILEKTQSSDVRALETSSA
Procedure: (§1) Apparent Inhibition constants (K_{i,app} values) were measured by pre-incubating enzyme and inhibitor solutions prior to initiating the reactions with substrate. Enzyme and inhibitor were pre-incubated for 2 hours at 30° C. in a 96-well plate by adding 10 μL of a 10× enzyme solution and 10 μL of 10× inhibitor solutions to 70 μL of reaction buffer. Reactions were initiated by the addition of 10 μL of a 10× concentrated stock of substrate, and were monitored at 30° C. in a fluorescence plate reader with the excitation and emission wavelengths set at 360 nm/460 nm, respectively. Kinetic data were acquired by the increase in fluorescence, and initial rates for each condition were plotted against the total inhibitor concentration. The data was fit to the following equation for tight binding inhibitors: […]

[3] = molecular target: T3, human plasma kallikrein (active form) (human, UniProt P03952 20-390; P03952 391-638); assay: apparent Ki (Ki,app), inhibition of human pKal enzyme activity
T3 construct: also called pKal; human pKal
T3 sequence (P03952 20-390, chain 1 of 2): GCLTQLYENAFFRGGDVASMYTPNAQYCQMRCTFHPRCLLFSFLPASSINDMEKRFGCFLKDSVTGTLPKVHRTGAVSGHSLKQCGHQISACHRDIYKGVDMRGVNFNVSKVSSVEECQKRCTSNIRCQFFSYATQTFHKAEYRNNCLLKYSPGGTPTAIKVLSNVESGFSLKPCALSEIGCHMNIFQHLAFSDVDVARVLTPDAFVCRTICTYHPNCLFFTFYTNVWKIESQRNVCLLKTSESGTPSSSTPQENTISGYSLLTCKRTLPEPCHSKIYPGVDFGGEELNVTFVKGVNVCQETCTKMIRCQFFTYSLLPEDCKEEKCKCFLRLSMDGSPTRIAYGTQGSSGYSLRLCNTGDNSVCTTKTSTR
T3 sequence (P03952 391-638, chain 2 of 2): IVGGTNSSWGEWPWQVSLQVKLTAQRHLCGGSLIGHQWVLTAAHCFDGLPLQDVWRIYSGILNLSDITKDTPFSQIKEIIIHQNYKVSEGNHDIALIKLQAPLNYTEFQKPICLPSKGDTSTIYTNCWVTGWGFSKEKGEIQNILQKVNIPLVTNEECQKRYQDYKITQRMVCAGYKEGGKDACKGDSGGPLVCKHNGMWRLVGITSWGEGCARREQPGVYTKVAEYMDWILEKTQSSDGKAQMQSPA
Procedure: as §1

[4] = molecular target: T4, wild type pKal catalytic domain (human, UniProt P03952 391-638, limits assumed); assay: Ki,app: enzyme inhibition, fluorescent substrate, 2 h pre-incubation at 30 C, tight-binding fit
T4 construct: domain: catalytic domain; The expression in Pichia pastoris with a His tag and IMAC purification is told of the mutants; also called WT cat; Domain; not shown: His tag fusion
Procedure: as §1

[5] = molecular target: T5, pKal catalytic domain Mutant 1 (human, UniProt P03952 391-638, limits assumed); assay: as above
T5 construct: domain: catalytic domain; Expressed in Pichia pastoris, purified by IMAC; not shown: His tag fusion
Procedure: as §1

[6] = molecular target: T6, human plasma kallikrein (full length, active) (human, UniProt P03952 20-390; P03952 391-638); assay: as above
T6 construct: two disulfide linked polypeptides; also called Full length pKal; pKal
T6 sequence (P03952 20-390, chain 1 of 2): as the sequence (P03952 20-390, chain 1 of 2) above
T6 sequence (P03952 391-638, chain 2 of 2): as the sequence (P03952 391-638, chain 2 of 2) above
Procedure: as §1

[7] = molecular target: T7, pKal catalytic domain Mutant 2 (human, UniProt P03952 391-638, limits assumed); assay: as above
T7 construct: domain: catalytic domain; Expressed in Pichia pastoris, purified by IMAC; not shown: His tag fusion
Procedure: as §1

[8] = molecular target: T8, pKal catalytic domain Mutant 2 (human, UniProt P03952 391-638, limits assumed); assay: apparent Ki (Ki,app), enzyme inhibition, pKal catalytic domain Mutant 2
T8 construct: domain: catalytic domain; Expressed in Pichia pastoris, purified by IMAC; not shown: His tag fusion
Procedure: as §1

[9] = molecular target: T9, wild type pKal catalytic domain (human, UniProt P03952 391-638, limits assumed); assay: apparent Ki (Ki,app), enzyme inhibition, wild type pKal catalytic domain
T9 construct: domain: catalytic domain; also called WT cat; Domain; not shown: His tag fusion
Procedure: as §1

[10] = molecular target: T10, pKal catalytic domain Mutant 1 (human, UniProt P03952 391-638, limits assumed); assay: apparent Ki (Ki,app), enzyme inhibition, pKal catalytic domain Mutant 1
T10 construct: domain: catalytic domain; Expressed in Pichia pastoris, purified by IMAC; not shown: His tag fusion
Procedure: as §1

T1 sequence (P03952 20-390, chain 1 of 2): as the sequence (P03952 20-390, chain 1 of 2) above
T1 sequence (P03952 391-638, chain 2 of 2): as the sequence (P03952 391-638, chain 2 of 2) above

B1: X59-C07 (antibody, V domains shown)
VH: EVQLLESGGGLVQPGGSLRLSCAASGFTFSHYLMTWVRQAPGKGLEWVSYISPSGGHTIYADSVKGRFTISRDNSKNTLYLQMNSLRAEDTAVYYCARVARGIAARSRTSYFDYWGQGTLVTVSS
VL: DIQMTQSPSSLSASVGDRVTVTCRAGRSISTYVNWYQQKPGKAPKLLIYAASSLQSGVPSRFSGSRSGTDFTLTISSLQPEDFATYYCQQSQSTPYTFGQGTKLEVK
notes: Found by ROLIC light chain shuffling
Ki [1]: 6.1 nM

B2: X60-D01 (antibody, V domains shown)
VH: B1 VH
VL: DIQMTQSPGTLSLSPGERATLSCRASQIVSSRYLAWYQQRPGQAPRLLIYGAASRATGIPDRFSGSGSGTDFTLTISSLQAEDFATYYCQQTYSSPFTFGQGTKMEIK
notes: as for B1
Ki [1]: 2 nM

B3: M160-G12 (antibody, V domains shown)
VH: B1 VH
VL: DIQMTQSPSFLSASVGDRVTITCRASQGISSYLAWYQQKPGKAPKLLIYAASTLQSGVPSRFSGSGSGTEFTLTISSLQPEDFATYYCQQLNSYPLTFGGGTKVEIK
notes: also called R84-D02
Ki [2]: 0.2 nM
Ki [3]: 5 nM

B4: DX-2922 (antibody, V domains shown)
VH: B1 VH
VL: EIVLTQSPGTLSLSPGERATLSCRTSQFVNSNYLAWYQQKPGQAPRLLIYGASSRATGIPDRFSGSGSGTDFTLTISRLEPEDFAVYYCQQSSRTPWTFGQGTKVEIK
notes: Germlined IgG produced in CHO cells; only the variable domains are printed; also called X101-A01; 559A-X0101-A01
Ki [4]: 0.22 nM
Ki [5]: 14 nM
Ki [6]: 0.2 nM
Ki [7]: 20 nM

B5: X115-B07 (antibody, V domains shown)
VH: B1 VH with R98M, A100G, R101Q, A104R, A105G, D113A, Y114Q
VL: B4 VL
notes: only variable domains given; also called 559A-X115-B07; 559A-X0115-B07
Ki [5]: 4.7 nM
Ki [6]: 0.33 nM
Ki [7]: 47 nM

B6: M29-D09 (Fab, V domains shown)
VH: EVQLLESGGGLVQPGGSLRLSCAASGFTFSWYTMVWVRQAPGKGLEWVSYIYPSGGATFYADSVKGRFTISRDNSKNTLYLQMNSLRAEDTAVYYCAMGSYDYIWGFYSDHWGQGTLVTVSS
VL: QSALTQPPTVSVSPGQTARITCSGNKLGDKYVAWYQQKPGQSPMLVIYQDTKRPSRVSERFSGSNSANTATLSISGTQALDEADYYCQAWDSSIVIFGGGTRLTVL
notes: also called 559A-M29-D09 (sFab); 559A-M0029-D09
Ki [8]: 0.34 nM
Ki [9]: 0.24 nM
Ki [10]: 0.27 nM
Ki [3]: 0.7 nM

B7: M29-D09 (Fab, V domains shown)
VH: B6 VH
VL: B6 VL
notes: as for B6
Ki [4]: 0.24 nM
Ki [5]: 0.27 nM
Ki [6]: 0.7 nM
Ki [7]: 0.34 nM

B8: M6-D09 (antibody, V domains shown)
VH: EVQLLESGGGLVQPGGSLRLSCAASGFTFSFYYMVWVRQAPGKGLEWVSVIYPSGGITVYADSVKGRFTISRDNSKNTLYLQMNSLRAEDTAVYYCARDKWAVMPPYYYYAMDVWGQGTTVTVSS
VL: DIQMTQSPSSLSASVGDRVTITCRASQSIRNYLNWYQQKPGKAPNLLIYAASTLQSGVPARFSGSGSGTDFTLTISSLQPEDFATYYCQQLSGYPHTFGQGTKLEIK
notes: also called M06-D09; 559A-M06-D09
Ki [8]: 13.5 nM
Ki [2]: 3.9 nM
Ki [9]: 2.5 nM
Ki [10]: 3.4 nM
Ki [3]: 5.9 nM

B9: M06-D09 (antibody, V domains shown)
VH: B8 VH
VL: B8 VL
notes: Only variable domains printed; also called M6-D09; 559A-M06-D09
Ki [4]: 2.5 nM
Ki [5]: 3.4 nM
Ki [6]: 5.9 nM
Ki [7]: 13.5 nM

B10: M145-D11 (Fab, V domains shown)
VH: EVQLLESGGGLVQPGGSLRLSCAASGFTFSHYRMSWVRQAPGKGLEWVSSIYPSGGRTVYADSVKGRFTISRDNSKNTLYLQMNSLRAEDTAVYYCAKDKFEWRLLFRGIGNDAFDIWGQGTMVTVSS
VL: QSVLTQPPSVSVSPGQTASITCSGDKLGDKYTSWYQQRPGQSPVLVIYQDIKRPSGIPERFSGSNSGNTATLTISGTQAMDEADYYCQAWDSPNARVFGSGTKVTVL
notes: also called 559A-M145-D11 (sFab); 559A-M0145-D11
Ki [8]: 0.1 nM
Ki [2]: 800 nM
Ki [9]: 0.16 nM
Ki [10]: 0.23 nM
Ki [3]: 0.79 nM

B11: M145-D11 (Fab, V domains shown)
VH: B10 VH
VL: B10 VL
notes: as for B10
Ki [4]: 0.16 nM
Ki [5]: 0.23 nM
Ki [6]: 0.79 nM
Ki [7]: 0.1 nM

B12: X115-F02 (Fab, V domains shown)
VH: EVQLLESGGGLVQPGGSLRLSCAASGFTFSHYIMMWVRQAPGKGLEWVSGIYSSGGITVYADSVKGRFTISRDNSKNTLYLQMNSLRAEDTAVYYCAYRRIGVPRRDEFDIWGQGTMVTVSS
VL: DIQMTQSPSTLSASVGDRVTITCRASQSISSWLAWYQQKPGKAPKLLIYKASTLESGVPSRFSGSGSGTEFTLTISSLQPDDFATYYCQQYNTYWTFGQGTKVEIK
notes: also called 559A-X115-F02; 559A-X0115-F02
Ki [4]: 0.09 nM
Ki [5]: 0.14 nM
Ki [6]: 0.089 nM
Ki [7]: 5.9 nM

B13: X115-G04 (antibody, V domains shown)
VH: B12 VH with I101T
VL: B12 VL
notes: only variable domains given; also called 559A-X115-G04; 559A-X0115-G04
Ki [4]: 0.3 nM
Ki [5]: 0.4 nM
Ki [6]: 0.6 nM
Ki [7]: 2.2 nM

B14: X115-A03 (antibody, V domains shown)
VH: B12 VH with Y98W, E108S, I111M
VL: B12 VL
notes: only variable domains given; also called 559A-X115-A03; 559A-X0115-A03
Ki [4]: 0.16 nM
Ki [5]: 0.23 nM
Ki [6]: 0.16 nM
Ki [7]: 3.7 nM

B15: X115-D01 (antibody, V domains shown)
VH: EVQLLESGGGLVQPGGSLRLSCAASGFTFSIYSMHWVRQAPGKGLEWVSSIYPSRGMTWYADSVKGRFTISRDNSKNTLYLQMNSLRAEDTAVYYCAYRRTGIPRRDAFDIWGQGTMVTVSS
VL: B12 VL
notes: only variable domains given; also called 559A-X115-D01; 559A-X0115-D01
Ki [4]: 0.18 nM
Ki [5]: 0.26 nM
Ki [6]: 0.18 nM
Ki [7]: 2.5 nM

B16: M35-G04 (antibody, V domains shown)
VH: EVQLLESGGGLVQPGGSLRLSCAASGFTFSYYHMSWVRQAPGKGLEWVSVISPSGGSTKYADSVKGRFTISRDNSKNTLYLQMNSLRAEDTAVYYCARGGSSDYAWGSYRRPYYFDYWGQGTLVTVSS
VL: DIQMTQSPATLSLSPGERATLSCRASQSVSSYLAWYQQKPGQAPRLLIYDASNRATGIPARFSGSGSGTDFTLTISSLEPEDFAVYYCQQRSNWPRGFTFGPGTKVDIK
notes: also called 559A-M35-G04; 559A-M0035-G04
Ki [8]: 1.1 nM
Ki [2]: 8 nM
Ki [9]: 0.8 nM
Ki [10]: 0.09 nM
Ki [3]: 2.9 nM

B17: M35-G04 (antibody, V domains shown)
VH: B16 VH
VL: B16 VL
notes: Only variable domains printed; also called 559A-M35-G04; 559A-M0035-G04
Ki [4]: 0.8 nM
Ki [5]: 0.09 nM
Ki [6]: 2.9 nM
Ki [7]: 1.1 nM
